Patent US20220175781A1, “CD40L COMPOSITIONS AND METHODS FOR TUNABLE REGULATION” (Obsidian Therapeutics, Inc., priority 2019, published 2022)
Values joined by “and” are separate entries in the source; they are usually repeats but may differ in a detail not shown here. Equal entries are not always repeated.

Columns and labels:
[1] = test system: T cells (CD4 and CD8 positive); assay: CD40L MFI in vitro in CD4 and CD8 positive T cells, 10 μM TMP; assay type: cell-based; settings: constitutive, ligand not given
Description: T cells were transduced with OT-001662 and then treated with 10 μM TMP on day 4. CD40L expression was analyzed by FACS both in the CD4 and CD8 positive T cell populations.

[2] = test system: HEK-Blue™ CD40 cells; assay: HEK-Blue CD40 SEAP reporter co-culture with transduced Jurkat cells; assay type: cell-based; settings: ligand 24 h (1 μM Shield-1, 50 μM TMP or 1 μM Bazedoxifene), recombinant soluble CD40L as standard
Description: Jurkat cells transduced with OT-001661, OT-001685, OT-001662, OT-001666, or OT-001667 were co-cultured with HEK-Blue™ CD40 cells (Invivogen, San Diego, Calif.). Cocultures were treated with ligands (1 μM Shield-1, 50 μM TMP, 1 μM Bazedoxifene (BZD) or vehicle control) for 24 hours and the secreted embryonic alkaline phosphatase (SEAP) reporter levels were measured in the media. All vehicle treated samples had background SEAP activity. Recombinant soluble CD40L was used as the standard in the experiments.

[3] = test system: Jurkat cells; assay: Surface expression of CD40L by FACS in lentivirally transduced Jurkat cells; assay type: cell-based; settings: for CD40L positive percent of live cells / Geometric Mean of CD40L fluorescent intensity: FACS
Description: 50,000 Jurkat cells were transduced with lentiviruses corresponding to the constructs. OT-001661, OT-001685, OT-001662, or OT-001666 and cultured for 48h. Cells were split and incubated with ligands for 24h before analysis by flow cytometry.
Jurkat cells were treated with one of the following: 1 μM Shield-1, 50 μM TMP, 1 μM Bazedoxifene (BZD) or vehicle control. Surface expression of CD40L was measured using FACS and the results are show in Table 9. All values were normalized to mode.

[4] = test system: T cells (CD4+ and CD8+); assay: Regulation of CD40L in T cells by different drug responsive domains; assay type: cell-based; settings: Ligand N/A
[5] = test system: T cells; assay: % CD40L positive cells in vivo, transduced T cells in NSG mice dosed with TMP; parameters: species or system NSG female mice; settings: constitutive construct
Description: Based on the in vitro data, regulatability of CD40L constructs in vivo was tested. 10-week old NSG female mice were injected with T cells transduced with one of the following constructs empty vector, OT-001661, and OT-001662 (day 0). On day 1, mice were pre-bled prior to dose with ligand. On day 2, mice were dosed every 4 hours with TMP at 500 mg/kg body weight of the mouse or vehicle control. Two hours after every dose, blood was collected from the mice to measure CD40L levels. On day 3, i.e. 24 hours after the first dose, mice were terminally bled for analysis. The values in bold represent the average values for each bleed.

[6] = test system: CD4+ T cells; assay: Ligand dose response, % CD40L positive cells, CD4+ T cells; assay type: cell-based
Description: Ligand dose response curve experiments were performed with increasing doses of ligand using OT-001662 and OT-001666 constructs in both CD4+ as well as CD8+ T cells.
The experiments were conducted using three different volumes of virus for transduction i.e. 0.5, 2 and 10 μL.

[7] = test system: CD8 positive T cells; assay: CD40L MFI by FACS in transduced CD8 positive T cells; assay type: cell-based
Description: Regulation of ecDHFR (R12Y, Y100I) DRD based construct OT-001662 and ER (N413D) DRD based construct OT-001666 were tested in CD8 positive T cells. For OT-001662, expressing cells, ligand was added 6 days after viral transduction at a dose of 50 μM TMP. OT-001666 expressing cells were treated with 0.5 μM Bazedoxifene or vehicle control, 5 days after transduction. Approximately 15-30k cells were analyzed per sample by FACS. All samples were compared to empty vector control as well as the constitutively expressed construct, OT-001661. Table 11 provides the mean fluorescence intensities (MFIs) obtained with each sample.

[8] = constitutive construct, no DRD, no ligand
[9] = ligand 24 h (1 μM Shield-1 OT-001685, 50 μM TMP OT-001662, 1 μM Bazedoxifene OT-001666)
[10] = vehicle 24 h (Ethanol 0.2% OT-001685, DMSO 0.5% OT-001662, DMSO 0.01% OT-001666)

B1: OT-001661: constitutively expressed full length CD40L construct (protein)
chain: MHMIETYNQTSPRSAATGLPISMKIFMYLLTVFLITQMIGSALFAVYLHRRLDKIEDERNLHEDFVFMKTIQRCNTGERSLSLLNCEEIKSQFEGFVKDIMLNKEETKKENSFEMQKGDQNPQIAAHVISEASSKTTSVLQWAEKGYYTMSNNLVTLENGKQLTVKRQGLYYIYAQVTFCSNREASSQAPFIASLCLKSPGRFERILLRAANTHSSAKPCGQQSIHLGGVFELQPGASVFVNVTDPSQVSHGTGFTSFGLLKL
CD40L MFI in vitro ([1]; CD4+): 24489
CD40L MFI in vitro ([1]; CD8+): 14352
Soluble CD40L [2]: 9341.40 pg/mL
CD40L positive percent of live cells [3, 8]: 99.4%
Geometric Mean of CD40L fluorescent intensity [3, 8]: 10075
CD40L expression relative to untransduced cells ([3]; constitutive construct): higher than untransduced cells
CD40L positive ([4]; All Cells): 98%
MFI ([4]; All Cells): 20451
CD40L positive ([4]; CD4+): 98.7%
MFI ([4]; CD4+): 24489
CD40L positive ([4]; CD8+): 97.8%
MFI ([4]; CD8+): 14352
% CD40L positive cells in vivo ([5]; 0 hours, average): 90.1%
% CD40L positive cells in vivo ([5]; 0 hours, individual values): 80.9% and 87.1% and 84.4% and 107.8%
% CD40L positive cells in vivo ([5]; 2 hours, average): 62.3%
% CD40L positive cells in vivo ([5]; 2 hours, individual values): 85.6% and 67.4% and 33.3% and 62.7%
% CD40L positive cells in vivo ([5]; 24 hours, average): 55.8%
% CD40L positive cells in vivo ([5]; 24 hours, individual values): 53.5% and 66.7% and 61.0% and 41.9%

B2: OT-001666 (Met; ER (305-549 of WT, L384M, N413D, M421G, G521R, Y537S); Histidine; CD40L; stop) (ligand)
chain: MSLALSLTADQMVSALLDAEPPILYSEYDPTRPFSEASMMGLLTNLADRELVHMINWAKRVPGFVDLTLHDQVHLLECAWMEILMIGLVWRSMEHPGKLLFAPNLLLDRDQGKCVEGGVEIFDMLLATSSRFRMMNLQGEEFVCLKSIILLNSGVYTFLSSTLKSLEEKDHIHRVLDKITDTLIHLMAKAGLTLQQQHQRLAQLLLILSHIRHMSNKRMEHLYSMKCKNVVPLSDLLLEMLDAHRLHMIETYNQTSPRSAATGLPISMKIFMYLLTVFLITQMIGSALFAVYLHRRLDKIEDERNLHEDFVFMKTIQRCNTGERSLSLLNCEEIKSQFEGFVKDIMLNKEETKKENSFEMQKGDQNPQIAAHVISEASSKTTSVLQWAEKGYYTMSNNLVTLENGKQLTVKRQGLYYIYAQVTFCSNREASSQAPFIASLCLKSPGRFERILLRAANTHSSAKPCGQQSIHLGGVFELQPGASVFVNVTDPSQVSHGTGFTSFGLLKL
% CD40L positive cells ([6]; 2 μL virus, BZD 0.05 nM): 8.57%
% CD40L positive cells ([6]; 2 μL virus, BZD 0.5 nM): 9.25%
% CD40L positive cells ([6]; 2 μL virus, BZD 5 nM): 11.1%
% CD40L positive cells ([6]; 2 μL virus, BZD 50 nM): 36%
% CD40L positive cells ([6]; 2 μL virus, BZD 500 nM): 71.8%
% CD40L positive cells ([6]; 10 μL virus, BZD 0.05 nM): 4.16%
% CD40L positive cells ([6]; 10 μL virus, BZD 0.5 nM): 4.86%
% CD40L positive cells ([6]; 10 μL virus, BZD 5 nM): 6.42%
% CD40L positive cells ([6]; 10 μL virus, BZD 50 nM): 34%
% CD40L positive cells ([6]; 10 μL virus, BZD 500 nM): 76.5%
CD40L MFI ([7]; +Ligand (50 μM TMP OT-001662; 0.5 μM Bazedoxifene OT-001666)): 33.1
CD40L MFI ([7]; Vehicle): 35.4
Soluble CD40L [2]: 1824.7 pg/mL
CD40L positive percent of live cells [3, 9]: 38.4%
Geometric Mean of CD40L fluorescent intensity [3, 9]: 421
CD40L positive percent of live cells [3, 10]: 0.024%
Geometric Mean of CD40L fluorescent intensity [3, 10]: 21.5
